Experimental data published in US20110154541A1.

Molecular target: horse-heart mitochondrial cytochrome c (horse) (UniProt P00004)
Assay: cell-based or functional assay

Sequence of UniProt P00004 (P00004 2-105 limits assumed): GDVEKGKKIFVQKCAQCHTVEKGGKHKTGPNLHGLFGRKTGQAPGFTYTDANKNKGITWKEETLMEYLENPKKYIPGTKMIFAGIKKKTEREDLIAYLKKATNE

- rate of cc reduction (light-dependent, increase of the cc alpha peak at 550 nm), with DCMU (µmol/(mg chl·h)): 20
- rate of cc reduction (light-dependent, increase of the cc alpha peak at 550 nm), without DCMU (µmol/(mg chl·h)): 12
Substance: Photosystem II with variant D1 protein D1-K238E, in thylakoid membranes isolated from the Synechocystis sp. PCC 6803 Glu mutant strain (from UniProt P16033 1-344)
